From publication PMC9352680, “A comprehensive thermodynamic model for RNA binding by the Saccharomyces cerevisiae Pumilio protein PUF4”

Target: T1, PUF4 RNA-binding domain (Saccharomyces cerevisiae, UniProt P25339 537-888)
T1 sequence: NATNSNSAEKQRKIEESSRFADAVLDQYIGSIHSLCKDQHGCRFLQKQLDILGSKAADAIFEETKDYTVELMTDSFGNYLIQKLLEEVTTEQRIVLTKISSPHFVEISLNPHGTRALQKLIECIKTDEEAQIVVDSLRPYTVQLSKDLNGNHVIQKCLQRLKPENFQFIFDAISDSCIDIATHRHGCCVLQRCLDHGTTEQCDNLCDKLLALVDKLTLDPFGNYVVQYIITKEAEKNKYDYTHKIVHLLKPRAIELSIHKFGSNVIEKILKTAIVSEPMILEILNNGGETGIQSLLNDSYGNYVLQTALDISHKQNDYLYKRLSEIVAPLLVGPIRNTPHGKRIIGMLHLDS
Experiment: Mg; RNA-MaP; 20 mM Na-HEPES pH 7.4, 30 mM KOAc, 0.75 mM MgCl2, 0.1% Tween-20, 5% glycerol, 0.1 mg/mL BSA, 2 mM DTT; 25 C; 0.0125-409.6 nM protein
Settings: tags: N-His6-TEV cleaved; C-SNAP kept, Cy3B-labelled; label: tethered on chip by stalled RNA polymerase

B1: Ic_S1_P5E.1_K5.1_C5.1_H5.1_A5.1_[T5A]_[T6C]_[A7C]_F5.1_[T8C]_[T9C]_T5.1 (ssRNA)
RNA: UCUCUUUGUAACCCCAUCUCUU
B1 was tested, and the Kd was 1280 nM.

B2: Ic_S1_P5E.1_K5.1_C5.1_H5.1_A5.1_[T6C]_F5.1_[T8G]_[A10G]_T5.1 (ssRNA)
RNA: UCUCUUUGUAUCAGUGUCUCUU
With B2 the Kd was 441 nM.

B3: Ic_S1_P5E.1_K5.1_C5.1_H5.1_A5.1_[T5C]_[T6A]_[A7T]_F5.1_[T8G]_[A10G]_T5.1 (ssRNA)
RNA: UCUCUUUGUACAUGUGUCUCUU
Binder B3 has a Kd of 27.2 nM.

B4: Ic_S1_P5E.1_K5.1_C5.1_H5.1_A5.1_[T5C]_F5.1_[T9A]_[A10C]_T5.1 (ssRNA)
RNA: UCUCUUUGUACUAUACUCUCUU
B4 was tested, and the Kd was 2.18 nM.

B5: Ic_S1_P5E.1_K5.1_C5.1_H5.1_A5.1_[T5G]_[T6C]_F5.1_[A10G]_T5.1 (ssRNA)
RNA: UCUCUUUGUAGCAUUGUCUCUU
In the case of B5, the Kd is reported as 771 nM.

B6: Ic_S1_P5E.1_K5.1_C5.1_H5.1_A5.1_[T6A]_[A7T]_F5.1_[T8G]_[T9A]_[A10C]_T5.1 (ssRNA)
RNA: UCUCUUUGUAUAUGACUCUCUU
B6 showed a Kd of 16.1 nM.

B7: Ic_S1_P5E.1_K5.1_C5.1_H5.1_A5.1_[T6A]_F5.1_[T8G]_[T9C]_[A10C]_T5.1 (ssRNA)
RNA: UCUCUUUGUAUAAGCCUCUCUU
B7 showed a Kd of 794 nM.

B8: Ic_S1_P5E.1_K5.1_C5.1_H5.1_A5.1_[T5C]_[T6G]_[A7T]_F5.1_[T8C]_[A10T]_T5.1 (ssRNA)
RNA: UCUCUUUGUACGUCUUUCUCUU
In the case of B8, the Kd is reported as 425 nM.

B9: Ic_S1_P5E.1_K5.1_C5.1_H5.1_A5.1_[T5G]_[T6C]_F5.1_[T8C]_[A10G]_T5.1 (ssRNA)
RNA: UCUCUUUGUAGCACUGUCUCUU
With B9 the Kd was over 2300 nM.

B10: Ic_S1_P5E.1_K5.1_C5.1_H5.1_A5.1_[A7T]_F5.1_[T8C]_[T9C]_T5.1 (ssRNA)
RNA: UCUCUUUGUAUUUCCAUCUCUU
Work on B10 yielded a Kd of 363 nM.

B11: Ic_S1_P3E.1_K3.1_C3.1_H3.1_A3.1_[A6T]_F3.1_[A8G]_T3.1 (ssRNA)
RNA: UCUCUUUGUAUUUGUCUCUU
In the case of B11, the Kd is reported as 106 nM.

B12: Ic_S1_P5E.1_K5.1_C5.1_H5.1_A5.1_[T5G]_[T6C]_[A7C]_F5.1_[T8C]_[A10T]_T5.1 (ssRNA)
RNA: UCUCUUUGUAGCCCUUUCUCUU
Binder B12 has a Kd of over 2300 nM.

B13: Ic_S1_P5E.1_K5.1_C5.1_H5.1_A5.1_[T6C]_F5.1_[T8A]_[A10T]_T5.1 (ssRNA)
RNA: UCUCUUUGUAUCAAUUUCUCUU
Work on B13 yielded a Kd of 85.2 nM.

B14: Ic_S1_P5E.1_K5.1_C5.1_H5.1_A5.1_[T5A]_[T6A]_[A7T]_F5.1_[T9C]_[A10T]_T5.1 (ssRNA)
RNA: UCUCUUUGUAAAUUCUUCUCUU
B14 gave a Kd of 20.1 nM.

B15: Ic_S1_P5E.1_K5.1_C5.1_H5.1_A5.1_[T5C]_[A7C]_F5.1_[T8C]_[T9A]_[A10C]_T5.1 (ssRNA)
RNA: UCUCUUUGUACUCCACUCUCUU
B15 was tested, and the Kd was 500 nM.

B16: Ic_S1_P5E.1_K5.1_C5.1_H5.1_A5.1_[T5A]_[T6A]_[A7C]_F5.1_[T8C]_[A10C]_T5.1 (ssRNA)
RNA: UCUCUUUGUAAACCUCUCUCUU
B16 was tested, and the Kd was 548 nM.

B17: Ic_S1_P5E.1_K5.1_C5.1_H5.1_A5.1_[T5C]_[A7G]_F5.1_[T8G]_[T9C]_[A10T]_T5.1 (ssRNA)
RNA: UCUCUUUGUACUGGCUUCUCUU
Work on B17 yielded a Kd of 991 nM.

B18: Ic_S1_P5E.1_K5.1_C5.1_H5.1_A5.1_[T6C]_[A7T]_F5.1_[T8C]_[T9C]_[A10G]_T5.1 (ssRNA)
RNA: UCUCUUUGUAUCUCCGUCUCUU
B18 showed a Kd of 484 nM.

B19: Ic_S1_P5E.1_K5.1_C5.1_H5.1_A5.1_[T5G]_[T6C]_[A7T]_F5.1_[A10T]_T5.1 (ssRNA)
RNA: UCUCUUUGUAGCUUUUUCUCUU
Binder B19 has a Kd of 516 nM.

B20: Ic_S1_P5E.1_K5.1_C5.1_H5.1_A5.1_[T5G]_[T6C]_[A7C]_F5.1_[T9A]_[A10T]_T5.1 (ssRNA)
RNA: UCUCUUUGUAGCCUAUUCUCUU
With B20 the Kd was 17.1 nM.

B21: Ic_S1_P5E.1_K5.1_C5.1_H5.1_A5.1_[T5C]_[T6G]_[A7T]_F5.1_[T9G]_[A10T]_T5.1 (ssRNA)
RNA: UCUCUUUGUACGUUGUUCUCUU
In the case of B21, the Kd is reported as 34.8 nM.

B22: Ic_S1_P3E.1_K3.1_C3.1_H3.1_A3.1_[A6G]_F3.1_[A8C]_T3.1 (ssRNA)
RNA: UCUCUUUGUAUGUCUCUCUU
Binder B22 has a Kd of 677 nM.

B23: Ic_S1_P5E.1_K5.1_C5.1_H5.1_A5.1_[T5C]_[T6A]_[A7T]_F5.1_[T8G]_T5.1 (ssRNA)
RNA: UCUCUUUGUACAUGUAUCUCUU
Binder B23 has a Kd of 8.91 nM.

B24: Ic_S1_P5E.1_K5.1_C5.1_H5.1_A5.1_[T5G]_[T6C]_[A7C]_F5.1_[T8C]_T5.1 (ssRNA)
RNA: UCUCUUUGUAGCCCUAUCUCUU
For B24, the Kd was 113 nM.

B25: Ic_S1_P5E.1_K5.1_C5.1_H5.1_A5.1_[T5C]_[T6C]_[A7T]_F5.1_T5.1 (ssRNA)
RNA: UCUCUUUGUACCUUUAUCUCUU
B25 was tested, and the Kd was 6.83 nM.

B26: Ic_S1_P5E.1_K5.1_C5.1_H5.1_A5.1_[T5C]_[T6G]_[A7T]_F5.1_[T8C]_[T9A]_[A10C]_T5.1 (ssRNA)
RNA: UCUCUUUGUACGUCACUCUCUU
Binder B26 has a Kd of 580 nM.

B27: Ic_S1_P5E.1_K5.1_C5.1_H5.1_A5.1_[T5C]_F5.1_[T8C]_[T9A]_[A10C]_T5.1 (ssRNA)
RNA: UCUCUUUGUACUACACUCUCUU
With B27 the Kd was 455 nM.

B28: Ic_S1_P5E.1_K5.1_C5.1_H5.1_A5.1_[A7C]_F5.1_[T8G]_[T9A]_[A10T]_T5.1 (ssRNA)
RNA: UCUCUUUGUAUUCGAUUCUCUU
With B28 the Kd was 466 nM.

B29: Ic_S1_P5E.1_K5.1_C5.1_H5.1_A5.1_[T5A]_[T6C]_[A7C]_F5.1_[T9A]_[A10T]_T5.1 (ssRNA)
RNA: UCUCUUUGUAACCUAUUCUCUU
For B29, the Kd was 12.8 nM.

B30: Ic_S1_P5E.1_K5.1_C5.1_H5.1_A5.1_[T6A]_F5.1_[T8C]_[T9C]_[A10G]_T5.1 (ssRNA)
RNA: UCUCUUUGUAUAACCGUCUCUU
For B30, the Kd was 152 nM.

B31: Ic_S1_P5E.1_K5.1_C5.1_H5.1_A5.1_[T5A]_[T6A]_F5.1_[T8A]_[T9C]_[A10C]_T5.1 (ssRNA)
RNA: UCUCUUUGUAAAAACCUCUCUU
B31 was tested, and the Kd was 1140 nM.

B32: Ic_S1_P5E.1_K5.1_C5.1_H5.1_A5.1_[T5A]_[T6C]_F5.1_[T9G]_[A10C]_T5.1 (ssRNA)
RNA: UCUCUUUGUAACAUGCUCUCUU
With B32 the Kd was 13.2 nM.
